Results taken from paper PMC4139326, “Functional Roles of the Dimer-Interface Residues in Human Ornithine Decarboxylase” (PLoS ONE, 2014).
Where a chain is given by its changes, count along the chain named. In names and notes the source's numbering stands. Like-named read-outs stand apart in the source and are kept apart here.

T1: human antizyme inhibitor (human), O14977
T1 chain: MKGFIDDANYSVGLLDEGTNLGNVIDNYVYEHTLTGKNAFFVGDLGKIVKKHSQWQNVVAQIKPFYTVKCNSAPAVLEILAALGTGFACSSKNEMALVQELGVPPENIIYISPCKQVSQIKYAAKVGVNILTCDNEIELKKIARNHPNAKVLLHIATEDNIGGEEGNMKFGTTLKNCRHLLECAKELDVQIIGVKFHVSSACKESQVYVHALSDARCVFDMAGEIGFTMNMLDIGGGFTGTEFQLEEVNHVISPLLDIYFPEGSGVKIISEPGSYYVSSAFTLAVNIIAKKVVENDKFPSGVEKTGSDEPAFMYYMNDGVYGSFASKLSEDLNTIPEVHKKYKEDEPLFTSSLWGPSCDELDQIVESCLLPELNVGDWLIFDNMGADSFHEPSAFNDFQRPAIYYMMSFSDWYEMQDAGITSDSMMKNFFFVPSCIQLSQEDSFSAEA

B1: human antizyme inhibitor, O14977 1-448 (natural protein)
chain: T1 chain
B2: human ornithine decarboxylase, wild type (enzyme)
chain: EEFDCHFLDEGFTAKDILDQKINEVSSSDDKDAFYVADLGDILKKHLRWLKALPRVTPFYAVKCNDSKAIVKTLAATGTGFDCASKTEIQLVQSLGVPPERIIYANPCKQVSQIKYAANNGVQMMTFDSEVELMKVARAHPKAKLVLRIATDDSKAVCRLSVKFGATLRTSRLLLERAKELNIDVVGVSFHVGSGCTDPETFVQAISDARCVFDMGAEVGFSMYLLDIGGGFPGSEDVKLKFEEITGVINPALDKYFPSDSGVRIIAEPGRYYVASAFTLAVNIIAKKIVLKEQTGSDDEDESSEQTFMYYVNDGVYGSFNCILYDHAHVKPLLQKRPKPDEKYYSSSIWGPTCDGLDRIVERCDLPEMHVGDWMLFENMGAYTVAAASTFNGFQRPTIYYVMSGPAWQLMQQFQNPDFPP
notes: ornithine decarboxylase (ODC), human; cDNA cloned into pQE30; Written as the protomer; it associates with itself to the dimer; also called ODC
B3: human ornithine decarboxylase Y331S/Y389D/R277S/D332E/K294A (enzyme)
chain: B2 chain with R271S, K288A, Y325S, D326E, Y383D
notes: ornithine decarboxylase (ODC), human; cDNA cloned into pQE30; also called [ODC_4M]+K294A
B4: human ornithine decarboxylase Y331S/Y389D/R277S/D332E/V322D (enzyme)
chain: B2 chain with R271S, V316D, Y325S, D326E, Y383D
notes: ornithine decarboxylase (ODC), human; cDNA cloned into pQE30; also called [ODC_4M]+V322D
B5: human ornithine decarboxylase Y331S/Y389D/R277S/D332E/R165E (enzyme)
chain: B2 chain with R159E, R271S, Y325S, D326E, Y383D
notes: ornithine decarboxylase (ODC), human; cDNA cloned into pQE30; also called [ODC_4M]+R165E
B6: human ornithine decarboxylase Y331S/Y389D/R277S/D332E/V322D/D134A (enzyme)
chain: B2 chain with D128A, R271S, V316D, Y325S, D326E, Y383D
notes: ornithine decarboxylase (ODC), human; cDNA cloned into pQE30; also called [ODC_4M]+[V322D/D134A]; sextuple mutant
B7: human ornithine decarboxylase Y331S/Y389D/R277S/D332E/K169A (enzyme)
chain: B2 chain with K163A, R271S, Y325S, D326E, Y383D
notes: ornithine decarboxylase (ODC), human; cDNA cloned into pQE30; also called [ODC_4M]+K169A
B8: human ornithine decarboxylase V322D (enzyme)
chain: B2 chain with V316D
notes: ornithine decarboxylase (ODC), human; cDNA cloned into pQE30
B9: human ornithine decarboxylase Y331S/Y389D/R277S (enzyme)
chain: B2 chain with R271S, Y325S, Y383D
notes: as for B8
B10: human ornithine decarboxylase D134A (enzyme)
chain: B2 chain with D128A
notes: as for B8
B11: human ornithine decarboxylase R277S (enzyme)
chain: B2 chain with R271S
notes: as for B8
B12: human ornithine decarboxylase Y331S (enzyme)
chain: B2 chain with Y325S
notes: as for B8
B13: human ornithine decarboxylase K294A (enzyme)
chain: B2 chain with K288A
notes: as for B8
B14: human ornithine decarboxylase K169A (enzyme)
chain: B2 chain with K163A
notes: as for B8
B15: human ornithine decarboxylase Y331S/Y389D/R277S/D332E/D134A (enzyme)
chain: B2 chain with D128A, R271S, Y325S, D326E, Y383D
notes: ornithine decarboxylase (ODC), human; cDNA cloned into pQE30; also called [ODC_4M]+D134A
B16: human ornithine decarboxylase R165E (enzyme)
chain: B2 chain with R159E
notes: as for B8
B17: human ornithine decarboxylase Y331S/Y389D/R277S/D332E (enzyme)
chain: B2 chain with R271S, Y325S, D326E, Y383D
notes: ornithine decarboxylase (ODC), human; cDNA cloned into pQE30; also called ODC_4M
B18: human ornithine decarboxylase Y389D (enzyme)
chain: B2 chain with Y383D
notes: as for B8
B19: human ornithine decarboxylase D332E (enzyme)
chain: B2 chain with D326E
notes: as for B8
B20: human ornithine decarboxylase Y331S/Y389D (enzyme)
chain: B2 chain with Y325S, Y383D
notes: as for B8

Assays:
[1] = target: ornithine decarboxylase (Homo sapiens) (UniProt P11926); details: cited from earlier work
[2] = target: antizyme inhibitor (Homo sapiens) (UniProt O14977); details: cited from earlier work
[3] = target: antizyme inhibitor (Homo sapiens) (UniProt O14977); details: cited from earlier work; remark: listed apart in the source
[4] = target: ornithine decarboxylase (Homo sapiens) (UniProt P11926); details: cited from earlier work; remark: listed apart in the source
[5] = target: T1, human antizyme inhibitor (human), O14977; assay: AUC; sedimentation velocity, 0.3, 0.6 and 0.9 mg/ml protein in 50 mM Tris-HCl pH 7.5, 293 K, 42,000 rpm; global fit to a monomer-dimer equilibrium model (SEDPHAT); dimer to monomers; details: remark: other sources report otherwise
[6] = target: the molecule itself; assay: as above

Chain of ornithine decarboxylase (Homo sapiens) (P11926 whole entry): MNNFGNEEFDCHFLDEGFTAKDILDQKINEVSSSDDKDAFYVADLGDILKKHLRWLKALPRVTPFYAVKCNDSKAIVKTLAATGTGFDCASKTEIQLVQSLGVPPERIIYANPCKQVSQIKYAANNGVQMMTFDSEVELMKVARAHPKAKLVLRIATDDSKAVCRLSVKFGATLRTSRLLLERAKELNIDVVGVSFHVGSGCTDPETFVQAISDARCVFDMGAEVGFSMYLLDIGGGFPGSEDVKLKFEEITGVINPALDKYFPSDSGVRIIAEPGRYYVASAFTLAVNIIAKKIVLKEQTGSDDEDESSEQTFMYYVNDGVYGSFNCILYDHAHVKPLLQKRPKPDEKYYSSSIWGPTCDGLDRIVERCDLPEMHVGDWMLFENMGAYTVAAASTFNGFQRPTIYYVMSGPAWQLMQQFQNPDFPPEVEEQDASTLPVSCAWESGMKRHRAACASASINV

Molecule | Kd [6] | other results
antizyme (from UniProt P54368) | – | Kd [1]: 200 nM; Kd [2]: 20 nM
antizyme inhibitor (from UniProt O14977) | – | Kd [3]: 84000 nM
ornithine decarboxylase (from UniProt P11926) | – | Kd [4]: 180 nM
B1 | – | Kd [5]: 72300 nM
B2 | 100 ± 1 nM | –
B3 | 260 ± 60 nM | –
B4 | 25200 ± 30 nM | –
B5 | 13500 ± 450 nM | –
B6 | 52800 ± 500 nM | –
B7 | 1490 ± 40 nM | –
B8 | 560 ± 12 nM | –
B9 | 1030 ± 4 nM | –
B10 | 120 ± 12 nM | –
B11 | 80 ± 6 nM | –
B12 | 1100 ± 8 nM | –
B13 | 100 ± 8 nM | –
B14 | 300 ± 8 nM | –
B15 | 13300 ± 40 nM | –
B16 | 110 ± 1 nM | –
B17 | 15900 ± 80 nM | –
B18 | 690 ± 5 nM | –
B19 | 30 ± 7 nM | –
B20 | 160 ± 1 nM | –
